Reference: patent US7244563B2, “Genes for plant fatty acid modifying enzymes associated with conjugated double bond formation” (E. I. du Pont de Nemours and Company, priority 2002, dated 2007)

B1: ImpFad2: Impatiens balsamina fatty acid modifying enzyme associated with conjugated double bond formation, SEQ ID NO:2, cDNA SEQ ID NO:1 (protein, listed as Impatiens balsamina)
chain: MGEVGPTNRTKTKLDKQQESENRVPHEPPPFTLSDLKKAIPPHCFERSLVKSFYHVIHDIIILSFFYYVAANYIPMLPQNLRYVAWPIYWAIQGCVQLGILVLGHECGHHAFSDYQWVDDMVGFVLHSSQLIPYFSWKHSHRRHHSNTASIERDEVYPPAYKNDLPWFAKYLRNPVGRFLMIFGALLFGWPSYLLFNANGRLYDRFASHYDPQSPIFNNRERLQVIASDVGLVFAYFVLYKIALAKGFVWLICVYGVPYVILNGLIVLITFLQHTHPNLPRYDLSEWDWLRGALSTVDRDYGMLNKVFHNVTDTHLVHHLFTTMPHYRAKEATEVIKPILGDYYKFDDTPFLKALWKDMGKCIYVESDVPGKNKGVYWYNNDI
B2: MomFad2: Momordica charantia fatty acid modifying enzyme associated with conjugated double bond formation, SEQ ID NO:4, cDNA SEQ ID NO:3 (protein, listed as Momordica charantia)
chain: MGGRGAIGVLRNGGGPKKKMGPGQGLGPGERITHARPPFSISQIKKAIPPHCFQRSLRRSFSYLLSDIALVSAFYYVADTYFHRLPHPLLHYLAWPVYWFCQGAVLTGMWGIAHDCGHHAFSDYQLVDDVVGFLIHSLVFVPYFSFKISHRRHHSNTSSVDRDEVFVPKPKAKMPWYFKYLTNPPARVFIIFITLTLGWPMYLTFNISGRYYGRFTSHFDPNSPIFSPKERVLVHISNAGLVATGYLLYRIAMAKGVGWLIRLYGVPLIVLNACVVLITALQHTHPSFPYYDSTEWDWLRGNLVTVDRDYGPIMNRVFHHITDTHVVHHLFPSMPHYNGKEATVAAKRILGEYYQFDGTPIWKAAWREFRECVYVEPDEDDGATSGSSSKGVFWYHNKL

How the values were obtained:
[1] = tested on: Tobacco (Nicotiana tabacum L. cv Xanthi) callus; experiment: Fatty acid analysis (GC, GC-MS) of transgenic tobacco callus expressing the cDNA; assay type: cell-based; conditions: CaMV 35S promoter
Excerpt: The cDNAs encoding fatty acid modifying enzymes associated with conjugated double bond synthesis in seeds of Impatiens balsamina and Momordica charantia were introduced into a plant expression vector designated pML63. Vector pML63 contains the uidA gene (which encodes the GUS enzyme) operably linked to the CaMV35S promoter and 3′ NOS sequence. pML63 is modified from pMH40 to produce a minimal 3′ NOS terminator fragment. pMH 40 is described in WO 98/16650 which was published on Apr. 23, 1998, the disclosure of which are hereby incorporated by reference. Using standard techniques familiar to those skilled in the art, the 770 base pair terminator sequence contained in pMH40 was replaced with a new 3′ NOS terminator sequence comprising nucleotides 1277 to 1556 of the sequence published by Depicker et al. (1982, J. Appl. Genet. 1:561–574). A chimeric gene was constructed comprising cDNAs encoding fatty acid modifying enzymes associated with conjugated double bond synthesis in seeds of Impatiens balsamina and Momordica charantia in sense orientation with respect to the cauliflower mosaic virus 35S promoter that is located 5′ to the cDNA fragment and termination sequences from the nopaline synthase (NOS) that are located 3′ to the cDNA fragment. The cDNAs for the Impatiens polypeptide was introduced in the NcoI and EcoRI sites of the vector pML63. The cDNA for the Momordica polypeptide was introduced into the NcoI and SmaI sites of the vector pML63. The NcoI and EcoRI sites flanking the Impatiens cDNA were generated by PCR amplification of the cDNAs using oligonucleotide primers that contained these restriction sites (SEQ ID NO:7 and SEQ ID NO:8, for the sense and antisense oligonucleotides, respectively). PCR amplification was conducted using the Pfu DNA polymerase. The NcoI site flanking the 5′ end of the Momordica cDNA was generated by PCR amplification in a similar manner (SEQ ID NO:9 and SEQ ID NO:10). The 3′ end of the PCR-generated Momordica cDNA was blunt-ended which allowed for cloning into the SmaI site of the vector pML63. The resulting fusions of the cauliflower mosaic virus 35S promoter with the cDNAs encoding fatty acid modifying enzymes associated with conjugated double bond synthesis in seeds of Impatiens balsamina or Momordica charantia and NOS termination sequences were released from the vector pML63 by digestion with XbaI. The resulting XbaI fragment was ligated into the corresponding site of the binary vector pZS199 The vector pZS199 contains the following elements: (1) the chimeric gene nopaline synthase/neomycin phosphotransferase as a selectable marker for transformed plant cells (Brevan et al. (1984) Nature 304:184–186), (2) the left and right borders of the T-DNA of the Ti plasmid (Brevan et al. (1984) Nucl. Acids Res. 12:8711–8720), (3) the E. coli lacZ-complementing segment (Vieria and Messing (1982) Gene 19:259–267) with unique restriction endonuclease sites for EcoRI, KpnI, BamHI, XbaI and SalI, (4) the bacterial replication origin from the Pseudomonas plasmid pVS1 (Itoh et al. (1984) Plasmid 11:206–220), and (5) the bacterial neomycin phosphotransferase gene from Tn5 (Berg et al. (1975) Proc. Natl. Acad. Sci. U.S.A. 72:3628–3632) as a selectable marker for transformed A. tumefaciens. The nopaline synthase promoter in the plant selectable marker was replaced by the 35S promoter (Odell et al. (1985) Nature, 313:810–813) by a standard restriction endonuclease digestion and ligation strategy.
Gene fusions of the Impatiens balsamina or Momordica charantia cDNAs with the cauliflower mosaic virus 35S promoter and the NOS termination sequences in vector pZS199 were introduced into Agrobacterium tumefaciens strain LBA4404. […]

soybean embryos = experiment: Fatty acid composition of transgenic soybean somatic embryos (GC, GC-MS); assay type: cell-based; conditions: for 16:0 / 18:0 / 18:1 / 18:2 / 18:3 / α-Parinaric / Eleostearic / Other: single soybean embryo; for 16:0 / 18:0 / 18:1 / 18:2 / 18:3 / α-Parinaric: % of total oil weight; for Eleostearic: includes cis-trans isomers of α-eleostearic acid (<1.0 wt %); for Other: primarily 20:0, 20:1, 22:0, and 22:1
Method: Gene fusions of the Impatiens balsamina or Momordica charantia cDNAs with the conglycinin promoter and phaseolin termination sequences in vector pKS67 were introduced into soybean embryos using the particle bombardment method of transformation. To induce somatic embryos, cotyledons, 3–5 mm in length dissected from surface sterilized, immature seeds of a soybean cultivar A2872 or JACK-910 were cultured in the light or dark at 26° C. on an appropriate agar medium for 6–10 weeks. Somatic embryos that produce secondary embryos were then excised and placed into a suitable liquid medium. After repeated selection for clusters of somatic embryos that multiplied as early, globular staged embryos, the suspensions were maintained as described below.
Soybean embryogenic suspension cultures were then transformed with the vector pKS67 containing the Impatiens or Momordica cDNA for fatty acid modifying enzymes associated with conjugated double synthesis by the method of particle gun bombardment (Klein et al. (1987) Nature (London) 327:70, U.S. Pat. No. 4,945,050). A DuPont Biolistic™ PDS1000/HE instrument (helium retrofit) was used for these transformations.
Five to seven days post bombardment, the liquid media was exchanged with fresh media, and eleven to twelve days post bombardment with fresh media containing […] hygromycin. This selective media was refreshed weekly. Seven to eight weeks post bombardment, green, transformed tissue was observed growing from untransformed, necrotic embryogenic clusters. Isolated green tissue was removed and inoculated into individual flasks to generate new, clonally propagated, transformed embryogenic suspension cultures. Each new line was treated as an independent transformation event. These suspensions were then subcultured and maintained as clusters of immature embryos.
Transgenic soybean embryos selected and maintained in this manner were analyzed for eleostearic acid and parinaric acid content using methods described in Example 4 (Table 1). Individual embryos expressing either the Impatiens or Momordica fatty acid modifying enzyme for conjugated double bond synthesis were homogenized in 1% (w/v) sodium methoxide in methanol. Fatty acid methyl esters resulting from this transesterification step were analyzed by both GC and GC-MS as described in Example 4. Methyl esters of eleostearic and parinaric acids were identified in transgenic soybean extracts by comparison of retention times and mass spectra with those of fatty acid methyl esters prepared from seeds of Impatiens balsamina and Momordica charantia. […] In soybean embryos expressing the Momordica enzyme, eleostearic acid was detected principally as α-eleostearic acid with lesser amounts of at least two other cis-trans isomers of eleostearic acid. […]

[2] = soybean embryos, β-conglycinin promoter, highest amount

Molecule | eleostearic acid accumulated, relative to total fatty acid [1] | parinaric acid accumulated, relative to total fatty acid [1] | 16:0 (soybean embryos; independent transgenic line 1) | 18:0 (soybean embryos; independent transgenic line 1) | 18:1 (soybean embryos; independent transgenic line 1) | 18:2 (soybean embryos; independent transgenic line 1) | 18:3 (soybean embryos; independent transgenic line 1) | α-Parinaric (soybean embryos; independent transgenic line 1) | 16:0 (soybean embryos; independent transgenic line 2) | 18:0 (soybean embryos; independent transgenic line 2) | 18:1 (soybean embryos; independent transgenic line 2) | 18:2 (soybean embryos; independent transgenic line 2) | 18:3 (soybean embryos; independent transgenic line 2) | α-Parinaric (soybean embryos; independent transgenic line 2) | 16:0 (soybean embryos; independent transgenic line 3) | 18:0 (soybean embryos; independent transgenic line 3) | 18:1 (soybean embryos; independent transgenic line 3) | 18:2 (soybean embryos; independent transgenic line 3) | 18:3 (soybean embryos; independent transgenic line 3) | α-Parinaric (soybean embryos; independent transgenic line 3) | further results
B1 | 3.4% | 1.7% | 13.3 Weight % | 4.2 Weight % | 20.8 Weight % | 46.3 Weight % | 9.2 Weight % | 2.2 Weight % | 13.2 Weight % | 2.5 Weight % | 12.2 Weight % | 53.8 Weight % | 12.5 Weight % | 2.0 Weight % | 13.5 Weight % | 3.1 Weight % | 11.1 Weight % | 53.0 Weight % | 17.3 Weight % | 1.0 Weight % | Eleostearic (soybean embryos; transgenic line 1): 3.0 Weight %; Other (soybean embryos; transgenic line 1): <1.0 Weight %; Eleostearic (soybean embryos; transgenic line 2): 2.8 Weight %; Other (soybean embryos; transgenic line 2): <1.0 Weight %; Eleostearic (soybean embryos; transgenic line 3): 0.6 Weight %; Other (soybean embryos; transgenic line 3): <1.0 Weight %; α-eleostearic acid of the total fatty acids (soybean embryos; [2]): ≤ 3%; α-parinaric acid of the total fatty acids (soybean embryos; [2]): ≤ 2%
B2 | 1.7% | 1.1% | 6.9 Weight % | 2.4 Weight % | 43.1 Weight % | 24.1 Weight % | 3.1 Weight % | 1.0 Weight % | 7.9 Weight % | 2.1 Weight % | 36.8 Weight % | 29.4 Weight % | 5.1 Weight % | 1.0 Weight % | 8.4 Weight % | 2.3 Weight % | 41.9 Weight % | 25.1 Weight % | 6.1 Weight % | 1.8 Weight % | Eleostearic (soybean embryos; transgenic line 1): 17.4 Weight %; Other (soybean embryos; transgenic line 1): <2.0 Weight %; Eleostearic (soybean embryos; transgenic line 2): 15.9 Weight %; Other (soybean embryos; transgenic line 2): <2.0 Weight %; Eleostearic (soybean embryos; transgenic line 3): 12.4 Weight %; Other (soybean embryos; transgenic line 3): <2.0 Weight %; eleostearic acid of the total fatty acids (soybean embryos; [2]): ≤ 16.5%; α-parinaric acid of the total fatty acids (soybean embryos; [2]): ≤ 1.5%
